According to patent US5637682, “High-affinity oligonucleotide ligands to the tachykinin substance P” (NeXstar Pharmaceuticals, Inc.):
Read-outs that look alike come from different tables or passages of the source.

T1: Substance P (SP) (UniProt P20366)
T1 sequence: RPKPQQFFGLM

T2: Substance P fragment 2-11
T2 chain: PKPQQFFGLM

T3: Reverse-orientation substance P (rSP)
T3 chain: CMLGFFQQPKPR

T4: Substance P (SP) (UniProt P20366)
T4 chain: RPKPQQFFGLM

B1: Ligand B28 (ssRNA)
RNA: GGGAGCUCAGAAUAAACGCUCAACUUCCAAGGCAGUGGAAACCCUAAGGUCAAUAAUGACCAAUGACGCCGCUCCGGUUCAACCUUCGACAUGAGGCCCGGAUCCGGC
B2: Experiment B class 2 ligand (SEQ 51) (ssRNA)
RNA: GGGAGCUCAGAAUAAACGCUCAAGAACAGGACACCUGGUUCUCAGGACGAGUUUACUAGGGCGGCAAAAAGGGCUCUCGUGGGUUCGACAUGAGGCCCGGAUCCGGC
B3: Experiment B class 2 ligand (SEQ 52) (ssRNA)
RNA: GGGAGCUCAGAAUAAACGCUCAAAAACAGGACACCAAUUUUAUUGGACGAGUUUACUAGGGCGGUAUUAUGGGCUCGCGAGGAUUCGACAUGAGGCCCGGAUCCGGC
B4: Experiment B class 2 ligand (SEQ 53) (ssRNA)
RNA: GGGAGCUCAGAAUAAACGCUCAAAAACAGGACACCAUGAAAAUGGACGAGUUCACUAGAGCGUUGAGCUGUGCGCCCGUGGAUUCGACAUGAGGCCCGGAUCCGGC
B5: Experiment B class 2 ligand (SEQ 54) (ssRNA)
RNA: GGGAGCUCAGAAUAAACGCUCAAAAACAGGACACCAAGAUUAUUGGACGAGUUUACUAGGGCGAUUAAUGGGCUCGCGAUGAUUCGACAUGAGGCCCGGAUCCGGC
B6: Experiment B class 2 ligand (SEQ 55) (ssRNA)
RNA: GGGAGCUCAGAAUAAACGCUCAAAACAGGACACCUUGAAUAAAGGACGAGUUUACUGUGCGUUUAGUAGAGAACCCGGGAUUCGACAUGAGGCCCGGAUCCGGC
B7: Ligand A13 (ssRNA)
RNA: GGGAGCUCAGAAUAAACGCUCAAGGGCAACGCGGGCACCCCGACAGGUGCAAAAACGCACCGACGCCCGGCCGAAGAAGGGGAUUCGACAUGAGGCCCGGAUCCGGC
B8: Ligand B32 (class 3) (ssRNA)
RNA: GGGAGCUCAGAAUAAACGCUCAAAAAGGCACUGACCACCCUCAGGAAGAAUAACCGCGGUCACCCGCAUCCGAGUCUAUCAAUUUCGACAUGAGGCCCGGAUCCGGC
B9: Ligand B22 (class 3) (ssRNA)
RNA: GGGAGCUCAGAAUAAACGCUCAAAAGGUAAGAAACAGGACACGCACUUAAACAGACGAGUUAACCAUACCUAGAUCGCGGAAUUCGACAUGAGGCCCGGAUCCGGC
B10: Ligand B23 (class 3) (ssRNA)
RNA: GGGAGCUCAGAAUAAACGCUCAAGCUCAAGGCAGAAACAGGACACACCAAGACGAGUUAACCAGCCCAGCUUGACCAUACAUUCGACAUGAGGCCCGGAUCCGGC
B11: Experiment B class 2 ligand (SEQ 48) (ssRNA)
RNA: GGGAGCUCAGAAUAAACGCUCAAAAAACAGGACACCAUGAUAAAUGGACGAGUUCACUGGAGCGUCUAAAAGGGCACCCUUGGAUUCGACAUGAGGCCCGGAUCCGGC
B12: Experiment B class 2 ligand (SEQ 49) (ssRNA)
RNA: GGGAGCUCAGAAUAAACGCUCAAUAACAGGACACCAUGAUUAAUGGACGAGUUCACUAGGGCGGUUAAAAGAGCUCUCGAGGAUUCGACAUGAGGCCCGGAUCCGGC
B13: Experiment B class 2 ligand (SEQ 50) (ssRNA)
RNA: GGGAGCUCAGAAUAAACGCUCAAGAACAGGACACCAAGAUAAUUGGACGAGUUUACUAGGGCGGCUAUGCUGGCUCUCGAGGAUUCGACAUGAGGCCCGGAUCCGGC

What was measured:
Substance P (SP) [1] = biological target: T1, Substance P (SP); details: equilibrium dialysis rough estimate, 20 uM RNA, fraction bound 0.017
[2] = biological target: T2, Substance P fragment 2-11; assay: competition; unable to compete at 32 uM (20-fold excess over SP); details: protein: synthetic; tags: synthetic peptide, Sigma
Protocol: (§1) Equilibrium dialysis. Equilibrium dialysis experiments were performed with a Spectra/Por® (Spectrum; Houston, Tex.) equilibrium dialyzer, Spectra/Por® (Spectrum; Houston, Tex.) microcell dialysis chambers (200-μl chamber volumes), and 12000–14000 MWCO dialysis membranes (Spectrum; Houston, Tex.). These membranes allow passage of SP but not 107-nt RNAs. Sample volumes were 200 μl on each side of the membrane (i.e., 200 μl per chamber). All experiments were at room temperature in 1X SP binding buffer. RNAs (unlabeled) were denatured prior to re-equilibration in binding buffer as described above for Experiment B. For binding curves (FIG. 4), RNA concentrations between 50 nM and 20 μM were utilized. […] For binding competition experiments (FIGS. 6 and 7), equal concentrations of the competing peptide were applied to each side of the membrane at the start of dialysis. The dialysis cells were rotated at 10 rpm to shorten the time required to reach equilibrium. […] Following equilibration, samples were withdrawn from the dialysis chambers, added to scintillation fluid, and counted.

[3] = biological target: T3, Reverse-orientation substance P (rSP); assay: competition; poor competitor of 3H-SP up to 100 uM; 1.6 uM RNA, 1.6 uM SP; details: protein: synthetic; tags: synthetic peptide
Protocol: as §1, with “These” for “Equilibrium dialysis. Equilibrium dialysis experiments were performed with a Spectra/Por® (Spectrum; Houston, Tex.) equilibrium dialyzer, Spectra/Por® (Spectrum; Houston, Tex.) microcell dialysis chambers (200-μl chamber volumes), and 12000–14000 MWCO dialysis membranes (Spectrum; Houston, Tex.). These”

Substance P (SP) [4] = biological target: T4, Substance P (SP); assay: equilibrium dialysis, five-point curve; single-point screen gave 170 nM; 10 mM HEPES pH 7.0, 150 mM NaCl, 5 mM KCl, 5 mM CaCl2, room temp; details: protein: synthetic; tags: free synthetic peptide, C-terminal amide, Sigma (3H-SP from NEN as tracer)
Protocol: as §1

Substance P (SP) [5] = biological target: T4, Substance P (SP); assay: single-point equilibrium dialysis; stated for all class 2; details: protein: synthetic; tags: free synthetic peptide, C-terminal amide, Sigma (3H-SP from NEN as tracer)
Protocol: (§2) Binding reactions consisted of 20 nM ^3H-SP (P_o) and either 0.2 µM RNA (a) or 1.0 µM RNA (b). ND=not determined.
as §1

Substance P (SP) [6] = biological target: T4, Substance P (SP); assay: equilibrium dialysis, five-point curve; earlier estimate 14 uM; SP binding buffer, room temp; details: protein: synthetic; tags: free synthetic peptide, C-terminal amide, Sigma (3H-SP from NEN as tracer)
Protocol: as §1

Substance P (SP) [7] = biological target: T4, Substance P (SP); assay: single-point equilibrium dialysis; exception to the >2 uM statement, exact value only in figure; details: protein: synthetic; tags: free synthetic peptide, C-terminal amide, Sigma (3H-SP from NEN as tracer)
Protocol: as §2, §1

Substance P (SP) [8] = biological target: T4, Substance P (SP); assay: single-point equilibrium dialysis; details: protein: synthetic; tags: free synthetic peptide, C-terminal amide, Sigma (3H-SP from NEN as tracer)
Protocol: as §2, §1

| Molecule | Kd (Substance P (SP) [5]) [µM] | further results |
| --- | --- | --- |
| GGGAGCUCAGAAUAAACGCUCAANNNNNNNNNNNNNNNNNNNNNNNNNNNNNNNNNNNNNNNNNNNNNNNNNNNNNNNNNNNNUUCGACAUGAGGCCCGGAUCCGGC [Unselected random 60N RNA pool] |  | Kd (Substance P (SP) [1]): 1200 µM |
| B1 |  | binding result [2]: no binding; binding result [3]: no binding; Kd (Substance P (SP) [4]): 0.19 µM |
| B2 | > 2 |  |
| B3 | > 2 |  |
| B4 | > 2 |  |
| B5 | > 2 |  |
| B6 | > 2 |  |
| B7 |  | Kd (Substance P (SP) [6]): 5.8 µM |
| B8 |  | Kd (Substance P (SP) [7]): < 2 µM |
| B9 |  | Kd (Substance P (SP) [8]): > 2 µM |
| B10 |  | Kd (Substance P (SP) [8]): > 2 µM |
| B11 | > 2 |  |
| B12 | > 2 |  |
| B13 | > 2 |  |
